Test [1] has as its target T1, CD39 mutant 5 (human, UniProt P49961 1-510).
T1 construct: Expressed on transfected Hek-293T cells; also called M5
T1 chain: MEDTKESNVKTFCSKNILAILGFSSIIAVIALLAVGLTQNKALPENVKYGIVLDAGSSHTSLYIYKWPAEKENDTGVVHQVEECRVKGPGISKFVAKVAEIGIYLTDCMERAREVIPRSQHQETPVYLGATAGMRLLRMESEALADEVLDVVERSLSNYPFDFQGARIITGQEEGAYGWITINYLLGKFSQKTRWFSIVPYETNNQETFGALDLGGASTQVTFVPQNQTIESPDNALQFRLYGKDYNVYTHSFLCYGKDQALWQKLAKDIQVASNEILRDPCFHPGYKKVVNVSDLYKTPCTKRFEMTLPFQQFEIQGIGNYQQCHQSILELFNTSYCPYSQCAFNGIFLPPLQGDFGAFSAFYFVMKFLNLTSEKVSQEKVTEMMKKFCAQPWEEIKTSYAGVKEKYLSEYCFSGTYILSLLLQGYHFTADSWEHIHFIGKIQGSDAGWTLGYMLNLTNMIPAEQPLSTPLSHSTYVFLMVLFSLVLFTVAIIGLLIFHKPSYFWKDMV
Briefly: flow cytometry on transfected Hek-293T cells. How it is done:
(§1) Mutants were transfected in Hek-293T cells, as shown in the table 1, using numbering of SEQ ID NO: 1. Dose-ranges of test antibodies (10-2.5-0.625-0.1563-0.0391-0.0098-0.0024-0.0006 μg/ml) are tested on the 20 generated mutants by flow cytometry.
Background: Flow cytometry measures light scatter and fluorescence of single cells or particles in a stream.

A further test deals with T2, CD39 mutant 11 (human, UniProt P49961 1-510).
T2 construct: Expressed on transfected Hek-293T cells
T2 sequence: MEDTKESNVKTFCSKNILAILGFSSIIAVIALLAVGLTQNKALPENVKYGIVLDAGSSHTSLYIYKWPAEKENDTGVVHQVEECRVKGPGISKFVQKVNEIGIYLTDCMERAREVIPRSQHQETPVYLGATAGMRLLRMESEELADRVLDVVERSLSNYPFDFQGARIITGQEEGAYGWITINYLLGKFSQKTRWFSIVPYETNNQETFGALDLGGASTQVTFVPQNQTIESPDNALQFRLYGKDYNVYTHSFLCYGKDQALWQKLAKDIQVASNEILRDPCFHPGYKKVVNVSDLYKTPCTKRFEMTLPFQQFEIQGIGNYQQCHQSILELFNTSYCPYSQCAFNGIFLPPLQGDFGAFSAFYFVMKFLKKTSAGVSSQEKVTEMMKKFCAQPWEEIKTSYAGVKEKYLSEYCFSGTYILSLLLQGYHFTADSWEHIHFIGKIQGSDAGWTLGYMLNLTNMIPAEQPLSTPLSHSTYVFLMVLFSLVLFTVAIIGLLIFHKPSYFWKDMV
Briefly: flow cytometry on transfected Hek-293T cells. How it is done: as §1

Test [2] has as its target T3, CD39 mutant 15 (human, UniProt P49961 1-510).
T3 construct: Expressed on transfected Hek-293T cells; also called M15
T3 chain: T1 chain with K87A, A96Q, A99N, E100A, D107A, A143E, E147R
The test can be described thus: flow cytometry on transfected Hek-293T cells. The procedure:
as §1

The target in test [3] is T4, CD39 mutant 19 (human, UniProt P49961 1-510).
T4 construct: Expressed on transfected Hek-293T cells; also called M19
T4 chain: T1 chain with A96Q, A99N, R138A, M139A, E142K, A143E, E147R
Briefly: flow cytometry on transfected Hek-293T cells. How it is done: as §1

Test [4] concerns the target T1, CD39 mutant 5. The test can be described thus: flow cytometry on Hek-293T cells transfected with CD39 mutant 5 [panel M5].
Test [5] deals with T4, CD39 mutant 19. The test can be described thus: flow cytometry on Hek-293T cells transfected with CD39 mutant 19 [panel M19].
The target in test [6] is T5, human CD39 expressed on cells (human, UniProt P49961 1-510).
T5 construct: On CHO transfectants, HEK-293T transfectants (wild type), Ramos lymphoma cells or monocyte-derived dendritic cells, as named under assay; also called huCD39; CHO-huCD39
T5 sequence: T1 chain with A96Q, A99N, A143E, E147R
The test can be described thus: flow cytometry on Hek-293T cells transfected with wild-type CD39 (unstained cells, US: 10,3) [panel WT].

For test [7], the target named is T3, CD39 mutant 15. Briefly: flow cytometry on Hek-293T cells transfected with CD39 mutant 15 [panel M15].

Where a chain is given by its changes, count along the chain named.

B1: antibody I-399 (antibody, V domains shown)
VH: PVQLQQPGAEVVMPGASVKLSCKASGYTFTSFWMNWMRQRPGQGLEWIGEIDPSDFYTNSNQRFKGKATLTVDKSSSTAYMQLSSLTSEDSAVYFCARGDFGWYFDVWGTGTSVTVSS
VL: EIVLTQSPTTMTSSPGEKITFTCSASSSINSNYLHWYQQKPGFSPKLLIYRTSNLASGVPTRFSGSGSGTSYSLTIGTMEAEDVATYYCQQGSSLPRTFGGGTKLEIK
notes: Purified from hybridoma supernatant with protein A for screening
For B1, the binding result with CD39 mutant 5 [1] is reported as “binds”; with CD39 mutant 11, “no binding (tested: 10 µg/ml (top of dose range))”; with CD39 mutant 15 [2], “binds”; with CD39 mutant 19 [3] it was “binds”.

B2: antibody I-395 (antibody, V domains shown)
VH: EVQLQQSGPELVKPGASVRMSCKASGYTFTDYNMHWVKKNHGKGLEWIGYINPNNGGTTYNQKFKGKATLTVNTSSKTAYMELRSLTSEDSAVYYCTRGGTRFASWGQGTLVTVSA
VL: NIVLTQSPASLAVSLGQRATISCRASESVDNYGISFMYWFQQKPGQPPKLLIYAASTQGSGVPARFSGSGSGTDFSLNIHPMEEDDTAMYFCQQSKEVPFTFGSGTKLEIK
notes: as for B1
For the molecule B2, the binding result with CD39 mutant 5 [4] and in the test with CD39 mutant 19 [5] was “no binding” throughout. In addition, the “Median : Comp-Alexa Fluor 647-A” value in test [6] was 4240.

B3: antibody I-396 (antibody, V domains shown)
VH: EVQLQQSGAELVKPGASVKLSCIVSGFNIKDTYINWVKQRPEQGLEWIGRIDPANGNTKYDPKFQGKATMTSDTSSNTAYLHLSSLTSDDSAVYYCARWGYDDEEADYFDSWGQGTTLTVSS
VL: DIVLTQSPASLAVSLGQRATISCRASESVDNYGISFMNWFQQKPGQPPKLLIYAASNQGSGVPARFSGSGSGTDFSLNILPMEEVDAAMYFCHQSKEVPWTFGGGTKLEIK
notes: as for B1
Take B3: the binding result with CD39 mutant 5 [4] is recorded as “binds”; with CD39 mutant 15 [7], “no binding”; with CD39 mutant 19 [5] it was “binds”. The “Median : Comp-Alexa Fluor 647-A” value in test [6] was found to be 4340.

Values taken from patent US20190218304A1 (INNATE PHARMA, published 2019).
